Experimental data reported in US20150232562A1 (Ablynx, published 2015).
Residue numbers refer to the chain shown, from its start.

B1: 17D7 (VHH)
VHH: EVQLVESGGGLVQPGGSLRLSCAASGFTLDYCAIGWFRQAPGKEREGVSCISSSDGSTYYADSVKGRFTISRDNAKNTVYLQMNSLKPEDTAVYYCATDRGSGTCYADFGSWGQGTQVTVSS
notes: C-term myc-His6 tag
B2: 46D4 (VHH)
VHH: EVQLVESGGGLVQPGGSLRLSCAASGFIFDDYAMSWVRQAPGKGLEWVSSINWSGTHTDYAEDMKGRFTISRDNAKKTLYLQMNSLQSEDTAVYYCAKGWGPAVTSIPVATLGTQVTVSS
notes: C-term myc-His6 tag
B3: 27B3 (VHH)
VHH: EVQLVESGGGLVQAGGSLTLSCTASETTVRIRTMAWYRQPPGNQREWVATIGSNGFATYPDSVKGRFTISRDNAKNTVYLQMNSLKPEDTAVYYCRDINRDIWGQGSQVTVSS
notes: C-term myc-His6 tag
B4: 27E5 (VHH)
VHH: B3 VHH
notes: C-term myc-His6 tag
B5: 27D6 (VHH)
VHH: B3 VHH
notes: C-term myc-His6 tag
B6: 30D10 (second entry, SEQ ID NO: 2204) (VHH)
VHH: B3 VHH
notes: C-term myc-His6 tag
B7: 47G11 (VHH)
VHH: EVQLVESGGGLVQPGGSLRLSCAASGRIFYPMGWFRQAPGKEREFVAAIGSGDIITYYADSVKGRFTISRDNAKNTVYLQMNSLKPEDTAVYYCASSRDYSRSRDPTSYDRWGQGTQVTVSS
notes: C-term myc-His6 tag
B8: 11A101/1-120 (VHH)
VHH: EVQLVESGGGLVQAGGSLRLSCAASGRTFNAMGWFRQAPGKEREFVAAISRSPGVTYYADSVKGRFTTSRDNAKNTVYLQMNDLKPEDTAVYYCAADFYLATLAHEYDYWGQGTQVTVSS
notes: C-term myc-His6 tag
B9: 11A22/1-122 (VHH)
VHH: EVQLVESGGGLVQAGGSLRLSCAASGRTFSSYAMAWFRQAPGTEREFIAGIRWSDGSTYYADSVKGRFTISRDNAKNTVYLQMNSLKPEDTAVYYCAADFYVSTLAHEYDYWGQGTQVTVSS
notes: C-term myc-His6 tag
B10: 12D44/1-122 (VHH)
VHH: B9 VHH with E1K, D73A, S85G
notes: C-term myc-His6 tag
B11: 12E11/1-122 (VHH)
VHH: B9 VHH with T43K, I48V, A49G, N77I
notes: C-term myc-His6 tag
B12: 13G111/1-123 (VHH)
VHH: EVQLVESGGGLVQAGGSLRLSCAASGRTFSSYAMGWFRQAPGKERAFVAAIRWSGGNTYYADSVKGRFTISRDNAKNTVYLQMNSLKPEDTAVYYCAADTFTLSTLSHEYDYWGQGTQVTVSS
notes: C-term myc-His6 tag
B13: 13F71/1-123 (VHH)
VHH: EVQLVESGGGLVQAGGSLRLSCVASGRTFSNYALAWFRQAPGKEREFVAAINWRSGGSTYYADSVKGRFTISRDNAKNTVYLQMNSLKPEDTAVYYCAADLIVATLPGEYDYWGQGTQVTVSS
notes: C-term myc-His6 tag
B14: 14H61/1-122 (VHH)
VHH: EVQLVESGGGLVQAGGSLRLSCAASGRTFSRFAMGWFRQAPGKEREFVAAVRWSDDYTYYADSVKGRFTISRDNAKNTVYLQMNSLSPEDTAVYYCAADEILATLPHEYDYWGQGTQVTVSS
notes: C-term myc-His6 tag
B15: 22B12/1-124 (VHH)
VHH: EVQLVESGGGLVQAGGSLRLSCAASGRTFSSYAMAWFRQAPGKEREFVAGINKSGGITHSADSVKGRFTISRDNAKNTVYLQMNSLKPEDTAVYYCAADAYTVIATLPHEYDYWGQGTQVTVSS
notes: C-term myc-His6 tag
B16: 12D51/1-120 (VHH)
VHH: EVQLVESGGGLVQPGGSLRLSCAASGSAFSIKSMGWYRQAPGKQRELAAVIISSGTTTYADSVKGRFTISRDSAKNTVYLQMDSLKPEDTAVYVCNAVYVSTWGNGYDYWGQGTQVTVSS
notes: C-term myc-His6 tag
B17: 11A111/1-126 (VHH)
VHH: EVQLVESGGGLVQAGGSLGLSCAAAGRTFSSSLMGWFRQAPGKEREFVAAITDNGGSTYYADSVKGRFTISRDNAKNSVYLQMNSLKPEDTAIYYCAARRSGYYSLSTSPHQYAYWGQGTQVTVSS
notes: C-term myc-His6 tag
B18: 13G71/1-124 (VHH)
VHH: EVQLVESGGGLVQAGGSLRLSCAASGRAFSSYAMGWFRQAPGKERDFVAAITSSGSTNYADSVKGRFTISRDNAKNTVYLQMNSLKPEDTAVYYCGARVNYAAYSRLEHDYHYWGQGTQVTVSS
notes: C-term myc-His6 tag
B19: 13G74/1-125 (VHH)
VHH: EVQLVESGGGLVQAGGSLRLSCATSGRTFSTYASMGWFRQTPGKEREFVAAITSSGSTNYADSVKGRFTISRDNAKNTVYLQMNSLKPEDTAVYYCGARVNYAAYSRLEHDYHYWGQGTQVTVSS
notes: C-term myc-His6 tag
B20: 11A71A/1-116 (VHH)
VHH: EVQLVESGGGLVQPGGSLRLSCAASGNIDGIITMGWYRQRPGKPREWVGTINSGGDTNYAGSVKGRFTIARDDAKNTMYLQMNGMKPEDTAVYYCKMNRAGIYEYWGQGTQVTVSS
notes: C-term myc-His6 tag
B21: 22B101/1-123 (VHH)
VHH: EVQLVESGGGLVQTGGSLRLSCAASGPTFSDYAIGWFRQAPGKEREFVAAISSSGISTIYGDSVKGRFDISRDNAKNTVYLQMNRLKPEDTAVYYCAARLFMATPNQGQYYYWGQGTQVTVSS
notes: C-term myc-His6 tag
B22: 11B42/1-123 (VHH)
VHH: EVQLVESGGGLVQAGDSLRLSCAASGFTFSNHIMGWFRQAPGKERELIAHITWNGGSTYYADSVKGRFAISRDNALNTVYLQMNSLKPEDTAVYYCAARPSYSTNNVKSYRYWGQGTQVTVSS
notes: C-term myc-His6 tag
B23: 13E111/1-124 (VHH)
VHH: EVQLVESGGGLVQAGSSLRLSCALSGRTFSDYAIGWFRQAPGKEREFVAAISGWSGGTTNYADSVKGRFTISRDNGKNTVDLRMNSLKPEDTAVYYCAARPAVVHTRKESYPYWGQGTQVTVSS
notes: C-term myc-His6 tag
B24: 14H12/1-125 (VHH)
VHH: EVQLVESGGGLVQAGGSLRLSCIASERTFSSAGVGWFRQAPGKERDFVAAISWNGVTIYYADSVKGRFTISRDNAKNTVYLQMNSLKPEDTAVYYCAARINYSVLTTTSSSYHYWGQGTQVTVSS
notes: C-term myc-His6 tag
B25: 13G101/1-123 (VHH)
VHH: EVQLVESGGGLVQPGDSLRLSCSASEGTLSRSRVAWFRQAPGKEREFVTVISGVGTSYADSVKGRFTISRDDAKNTVYLQMNSLKAEDTAIYYCAADFRSTWLSSSGSSYTYWGQGTQVTVSS
notes: C-term myc-His6 tag
B26: 13G41/1-121 (VHH)
VHH: EVQLVESGGGLVQPGGSLTLSCVGSGRRFSADVMGWYRQAPGKQREFVASISSGSAINYADSVKGRFTVSRDNAQNTVYLQMNSLKIEDTGVYYCNARRIVNVEGAYRDYWGQGTQVTVSS
notes: C-term myc-His6 tag
B27: 22B910/1-121 (VHH)
VHH: EVQLVESGGGLVQPGGSLPLSCAASGSIFRMNDMGWYRQAPGKQRERVATLTSAGNTNYADSVKGRFTISGDDARNTVYLQMNSLNPEDTAVYYCNAKVVVAVEGAKYDYWGQGTQVTVSS
notes: C-term myc-His6 tag
B28: 21A81/1-122 (VHH)
VHH: EVQLVESGGGLAQAGGSLRLSCAVFGRSRYGMAWFRRAPGKEREFVAGIAWNGASIGSADSVRGRFTISRDNSENTVYFEMGSLKPEDTAVYYCAICRISWCAGAESDYGYWGQGTQVTVSS
notes: C-term myc-His6 tag
B29: 21A92/1-127 (VHH)
VHH: EVQLVESGGGQVQAGGSLRLSCTESGRAFNTRAMGWFRQAPEKEREFVAGITMSGFNTRYADSVKGRFTISRDNAKGTVYLQMSSLKPEDTAVYYCAADSITDRRSVAVAHTSYYYWGQGTQVTVSS
notes: C-term myc-His6 tag
B30: 22C712/1-123 (VHH)
VHH: EVQLVESGGGLVQAGGSLGLSCAASGRTFSNYAMGWFRQAPGKEREFVAGISWSGGHTFYADSVKGRFTISRDNTKNTVYLQMNSMRPEDTAVYYCAARLSSVAVASTRYDYWGQGTQVTVSS
notes: C-term myc-His6 tag
B31: 11A13/1-125 (VHH)
VHH: EVQLVESGGGLVQAGDSLRLSCVASGGTFGSYAMGWFRQAPGKEREFVATIDWSGDTAFYADSVKGRFTISRDIANDVVYLQMNSLEPEDTAVYYCARNRQSGVASENLRLYTYWGQGTQVTVSS
notes: C-term myc-His6 tag
B32: 13G93/1-123 (VHH)
VHH: EVQLVESGGGLAQAGDSLRLSCVDSGSSFSAYAMGWFRQAPGKEREFVAAVSWDGRNTYYADSVKGRFTISRDNAKNTLYLQTTSLRPEDTGVYYCAEDKQSGVSVNPKYAYWGQGTQVTVSS
notes: C-term myc-His6 tag
B33: 12C52/1-118 (VHH)
VHH: EVQLVESGGGLVQAGGSLRLSCAVSGGTFESDTMAWFRQAPGKEREFVARVSWIRTTYYSDSVKGRFTISKDNAKNTVYLQMNSLKPEDTAVYYCAAQTLGRSLYDYWGQGTQVTVSS
notes: C-term myc-His6 tag
B34: 12C61/1-126 (VHH)
VHH: EVQLVESGGGLVQAGGSLRLSCAASGRTFSSNAMAWFRQAPGNERELVSAIGWSGASTYYIDSVEGRFTISRDNAKNTVYLQMNSLKPEDTAVYYCAASRYSGGVATARRSEYHYWGQGTQVTVSS
notes: C-term myc-His6 tag
B35: 21A61/1-125 (VHH)
VHH: EVQLVESGGGLVQAGDSLRLSCVASGDSFNTYTMGWFRQAPGKEREFVAAIRWSGGTTFYGDSVKGRFTISRDYAKNTWYLQMNTLKPEDTAAYYCAAVATYSRNVGSVRNYDYWGQGTQVTVSS
notes: C-term myc-His6 tag

Molecular target: T1, recombinant human ErbB2/Fc chimera (human, UniProt P04626 23-652)
T1 construct: bought from R&D Systems; also called rhErbB2-Fc; rhErb2-Fc; Fc part of the bought chimera not given; not described
Test: ELISA, coated ErbB2/Fc

Binding result, binds:
B1, B2, B3, B4, B5, B6, B7, B8, B9, B10, B11, B12, B13, B14, B15, B16, B17, B18, B19, B20, B21, B22, B23, B24, B25, B26, B27, B28, B29, B30, B31, B32, B33, B34, B35
